Laboratory results reported in patent publication US20220040304A1, “A COMPOSITION FOR CANCER CELL DEATH AND ITS USE” (Industry-University Cooperation Foundation Hanyang …, priority 2018, published 2022).

B1: RLuc8.6-KR-LP: fusion protein of RLuc8.6, KillerRed and lead peptide WLEAAYQRFL, 71 kDa (protein)
chain: MRGSHHHHHHGMASMTGGQQMGRDLYDDDDKDPMASKVYDPEQRKRMITGPQWWARCKQMNVLDSFINYYDSEKHAENAVIFLHGNATSSYLWRHVVPHIEPVARCIIPDLIGMGKSGKSGNGSYRLLDHYKYLTAWFELLNLPKKIIFVGHDWGSALAFHYAYEHQDRIKAIVHMESVVDVIESWMGWPDIEEELALIKSEEGEKMVLENNFFVETLLPSKIMRKLEPEEFAAYLEPFKEKGEVRRPTLSWPREIPLVKGGKPDVVQIVRNYNAYLRASDDLPKLFIESDPGFFYNAIVEGAKKFPNTEFVKVKGLHFLQEDAPDEMGKYIKSFVERVLKNEQEFGGGMLCCMRRTKQVEKNDEDQKISEGGPALFQSDMTFKIFIDGEVNGQKFTIVADGSSKFPHGDFNVHAVCETGKLPMSWKPICHLIQYGEPFFARYPDGISHFAQECFPEGLSIDRTVRFENDGTMTSHHTYELDDTCVVSRITVNCDGFQPDGPIMRDQLVDILPNETHMFPHGPNAVRQLAFIGFTTADGGLMMGHFDSKMTFNGSRAIEIPGPHFVTIITKQMRDTSDKRDHVCQREVAYAHSVPRITSAIGSDEDGGGWLEAAYQRFL
modifications: pRSET-RLuc8.6-KillerRed-Lead peptide
B2: RLuc8.6-KR: fusion protein of RLuc8.6 and KillerRed without lead peptide, 69 kDa (protein)
chain: MRGSHHHHHHGMASMTGGQQMGRDLYDDDDKDPMASKVYDPEQRKRMITGPQWWARCKQMNVLDSFINYYDSEKHAENAVIFLHGNATSSYLWRHVVPHIEPVARCIIPDLIGMGKSGKSGNGSYRLLDHYKYLTAWFELLNLPKKIIFVGHDWGSALAFHYAYEHQDRIKAIVHMESVVDVIESWMGWPDIEEELALIKSEEGEKMVLENNFFVETLLPSKIMRKLEPEEFAAYLEPFKEKGEVRRPTLSWPREIPLVKGGKPDVVQIVRNYNAYLRASDDLPKLFIESDPGFFYNAIVEGAKKFPNTEFVKVKGLHFLQEDAPDEMGKYIKSFVERVLKNEQEFGGGMLCCMRRTKQVEKNDEDQKISEGGPALFQSDMTFKIFIDGEVNGQKFTIVADGSSKFPHGDFNVHAVCETGKLPMSWKPICHLIQYGEPFFARYPDGISHFAQECFPEGLSIDRTVRFENDGTMTSHHTYELDDTCVVSRITVNCDGFQPDGPIMRDQLVDILPNETHMFPHGPNAVRQLAFIGFTTADGGLMMGHFDSKMTFNGSRAIEIPGPHFVTIITKQMRDTSDKRDHVCQREVAYAHSVPRITSAIGSDED
modifications: pRSET-RLuc8.6-KillerRed

Legend:
Type in all cases: cell-based, human
MCF-7 cells = test: Flow cytometric analysis of KR, SYTOX Green and DAPI
Description: MCF-7 cells were seeded at 5×10^5 cells/mL in a 96-well plate (SPL Cell Culture Plate, 96 well (SPL, Cat #30096)), and cultured at 37° C. for 24 hours (overnight). After the culture, the cells were washed with FBS & Phenol red-free media (RPMI), and 100 μL of FBS & Phenol red-free media (RPMI) containing a purified protein (final concentration: 10 μM), followed by reaction at 37° C. for 24 hours (overnight).
After washing with KillerRed: FBS & Phenol red-free media (RPMI), the cells were detached by treating 100 μL of Trypsin EDTA (Gibco™), and then centrifuged at 1,000 rpm for 3 minutes. The cells were filtered through a cell strainer (SPL, cat #93070) and resuspended in 400 μL of 1×DPBS containing 5% FBS.
The cells were washed with SYTOX Green: FBS & Phenol red-free media (RPMI), and 100 μL (final concentration: 150 μM) of FBS & Phenol red-free media (RPMI) containing a Co-h substrate solution was added, followed by incubation for 24 hours at 37° C. 50 μL of SYTOX Green (final concentration: 261 nM) staining DNA of dead cells was added without washing the cells, followed by reaction at 37° C. for 30 minutes. Without washing, the cells were detached by treatment with 100 μL of trypsin EDTA (Gibco™), and centrifuged at 1,000 rpm for 3 minutes. The cells were filtered through a cell strainer (SPL, cat #93070) and resuspended in 400 μL of 1×DPBS containing 5% FBS.
The cells were washed with DAPI: FBS & Phenol red-free media (RPMI), and 100 μL (final concentration: 150 μM) of FBS & Phenol red-free media (RPMI) containing a Co-h substrate solution was added, followed by incubation for 24 hours at 37° C. The cells were washed with FBS & Phenol red-free media (RPMI), and then 100 μL of media (RPMI) was added thereto. 10 μL of DAPI staining DNA of live cells was added, followed by reaction at 37° C. for 30 minutes. The cells were detached by treatment with 100 μL of trypsin EDTA (Gibco™) without washing, followed by centrifugation at 1,000 rpm for 3 minutes. The cells were filtered through a cell strainer (SPL, cat #93070) and resuspended in 400 μL of 1×DPBS containing 5% FBS.

MCF-7 = test: Cell death with Co-h substrate by cell type (SYTOX Green or EthD-1/DAPI); conditions: MCF-7, protein 10 μM, Co-h 150 μM for 5 minutes
Description: (§1) The cells were seeded at 5×10^5 cells/mL in 96-well plates (SPL Cell Culture Plate, 96 well (SPL, Cat #30096)), and cultured at 37° C. for 24 hours (overnight). After the culture for 24 hours, the cells were washed with FBS & phenol red-free media, and 100 μL of FBS & phenol red-free media containing a purified protein (final concentration: 10 μM) was added, followed by reaction at 37° C. for 24 hours.
(§2) Subsequently, the cells were washed with FBS & phenol red-free media, and 100 μL of FBS & phenol red-free media was added. 100 μL of FBS & Phenol red-free media (RPMI) containing a Co-h substrate solution (final concentration: 150 μM) was added, followed by reaction at 37° C. for 5 minutes.
(§3) After the reaction, 50 μL of SYTOX Green (final concentration: 261 nM) or 90 μL of ethidium homodimer (EthD-1) (final concentration 1×), which stains DNA of dead cells, was added, followed by reaction at 37° C. for 30 minutes. 10 μL of DAPI staining DNA of live cells was added, followed by reaction for 5 minutes. Cell death was confirmed by observing KillerRed, SYTOX Green, MiniSOG, EthD-1 and DAPI fluorescence using a confocal microscope.

MDA-MB-435 = test: as above; conditions: MDA-MB-435, protein 10 μM, Co-h 150 μM for 5 minutes
Description: as §1, §2, §3

[1] = MCF-7, protein 10 μM, Co-h 150 μM 24 hours

Row | Molecule | number of cells exhibiting fluorescence of KillerRed (FACS) (MCF-7 cells; MCF-7, protein 10 μM 24 hours) | number of cells exhibiting SYTOX Green (FACS) (MCF-7 cells; [1]) | number of cells stained with DAPI (FACS) (MCF-7 cells; [1]) | cell death with Co-h substrate (MCF-7) | cell death with Co-h substrate (MDA-MB-435)
1 | B1 | increased | increased | decreased | killed them | killed them
2 | B2 | – | – | increases without a cytotoxic effect | none of the six breast cancer cell lines were killed | none of the six breast cancer cell lines were killed
